Type in all cases: functional, cell-based, Oocyte
Series [1] deals with T1, Solute carrier organic anion transporter family member 1A4 (SLCO1A4, OATP1A4) (Rattus norvegicus, UniProt O35913).
T1 sequence (O35913 whole entry): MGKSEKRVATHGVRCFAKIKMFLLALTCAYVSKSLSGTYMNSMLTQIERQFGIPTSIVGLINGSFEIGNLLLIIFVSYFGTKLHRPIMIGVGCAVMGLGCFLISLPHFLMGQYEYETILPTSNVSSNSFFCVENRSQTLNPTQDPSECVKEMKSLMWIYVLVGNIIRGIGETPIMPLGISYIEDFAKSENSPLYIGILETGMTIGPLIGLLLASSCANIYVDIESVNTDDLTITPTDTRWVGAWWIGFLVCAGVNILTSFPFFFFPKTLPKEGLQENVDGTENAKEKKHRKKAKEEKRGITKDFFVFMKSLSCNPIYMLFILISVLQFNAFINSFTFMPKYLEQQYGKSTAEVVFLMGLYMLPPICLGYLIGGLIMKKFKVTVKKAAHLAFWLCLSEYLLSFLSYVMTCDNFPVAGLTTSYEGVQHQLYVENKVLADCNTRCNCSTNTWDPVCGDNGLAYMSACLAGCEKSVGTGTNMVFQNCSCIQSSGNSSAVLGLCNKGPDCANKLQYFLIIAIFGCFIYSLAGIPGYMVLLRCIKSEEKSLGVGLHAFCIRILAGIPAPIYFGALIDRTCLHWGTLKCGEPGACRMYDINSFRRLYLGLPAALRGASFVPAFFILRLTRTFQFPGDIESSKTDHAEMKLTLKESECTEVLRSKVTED
Put plainly: (§1) TP_TRANSPORTER: uptake in Xenopus laevis oocytes. As to conditions: Xenopus laevis oocytes expressing the transporter.

In series [2] the target is T2, Solute carrier organic anion transporter family member 1A4 (Rattus norvegicus, UniProt O35913).
T2 sequence (O35913 whole entry): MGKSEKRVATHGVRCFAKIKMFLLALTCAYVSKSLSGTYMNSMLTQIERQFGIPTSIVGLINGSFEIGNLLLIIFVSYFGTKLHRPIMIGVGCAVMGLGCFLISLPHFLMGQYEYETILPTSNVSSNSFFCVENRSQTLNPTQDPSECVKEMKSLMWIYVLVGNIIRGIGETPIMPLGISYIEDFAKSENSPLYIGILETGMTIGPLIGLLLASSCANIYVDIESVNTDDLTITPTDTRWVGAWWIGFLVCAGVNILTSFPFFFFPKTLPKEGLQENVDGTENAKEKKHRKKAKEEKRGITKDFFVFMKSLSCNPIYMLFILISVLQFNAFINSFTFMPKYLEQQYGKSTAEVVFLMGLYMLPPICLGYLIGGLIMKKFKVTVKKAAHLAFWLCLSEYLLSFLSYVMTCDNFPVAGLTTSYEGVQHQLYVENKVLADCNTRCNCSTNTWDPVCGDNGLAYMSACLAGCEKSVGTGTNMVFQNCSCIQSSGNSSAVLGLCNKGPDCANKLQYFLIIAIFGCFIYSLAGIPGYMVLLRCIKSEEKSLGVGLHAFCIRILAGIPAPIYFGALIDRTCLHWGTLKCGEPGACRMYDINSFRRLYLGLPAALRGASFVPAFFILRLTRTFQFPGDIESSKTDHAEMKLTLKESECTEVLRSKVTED
The description is as §1. To be noted: oocyte.

Substrate in series [3]: C[C@]12CC[C@@H]3c4ccc(O)cc4CC[C@H]3[C@@H]1CC[C@@H]2O[C@@H]1O[C@H](C(=O)O)[C@@H](O)[C@H](O)[C@H]1O
The series is described as §1.

Substrate in series [4]: C[C@]12CC[C@@H]3c4ccc(OS(=O)(=O)O)cc4CC[C@H]3[C@@H]1CCC2=O
Described as §1.

Substrate in series [5]: C[C@H]1O[C@@H](O[C@H]2[C@@H](O)C[C@H](O[C@H]3[C@@H](O)C[C@H](O[C@H]4CC[C@@]5(C)[C@H](CC[C@@H]6[C@@H]5C[C@@H](O)[C@]5(C)[C@@H](C7=CC(=O)OC7)CC[C@]65O)C4)O[C@@H]3C)O[C@@H]2C)C[C@H](O)[C@@H]1O
Described as §1.

Broadly, the Km is the concentration of substrate that gives half-maximal velocity. Turning to `C[C@@H]1O[C@@H](O[C@H]2C[C@@H](O)[C@]3(CO)[C@H]4[C@H](O)C[C@]5(C)[C@@H](C6=CC(=O)OC6)CC[C@]5(O)[C@@H]4CC[C@]3(O)C2)[C@H](O)[C@H](O)[C@H]1O` [OUABAIN], the Km in series [1] stood at 470 µM.
On to `CN(Cc1cnc2nc(N)nc(N)c2n1)c1ccc(C(=O)N[C@@H](CCC(=O)O)C(=O)O)cc1` [METHOTREXATE], for which, in series [2], the Activity result was “is not a substrate [-]”.

B1: Solute carrier organic anion transporter family member 1A4 (Rattus norvegicus) (protein)
chain: MGKSEKRVATHGVRCFAKIKMFLLALTCAYVSKSLSGTYMNSMLTQIERQFGIPTSIVGLINGSFEIGNLLLIIFVSYFGTKLHRPIMIGVGCAVMGLGCFLISLPHFLMGQYEYETILPTSNVSSNSFFCVENRSQTLNPTQDPSECVKEMKSLMWIYVLVGNIIRGIGETPIMPLGISYIEDFAKSENSPLYIGILETGMTIGPLIGLLLASSCANIYVDIESVNTDDLTITPTDTRWVGAWWIGFLVCAGVNILTSFPFFFFPKTLPKEGLQENVDGTENAKEKKHRKKAKEEKRGITKDFFVFMKSLSCNPIYMLFILISVLQFNAFINSFTFMPKYLEQQYGKSTAEVVFLMGLYMLPPICLGYLIGGLIMKKFKVTVKKAAHLAFWLCLSEYLLSFLSYVMTCDNFPVAGLTTSYEGVQHQLYVENKVLADCNTRCNCSTNTWDPVCGDNGLAYMSACLAGCEKSVGTGTNMVFQNCSCIQSSGNSSAVLGLCNKGPDCANKLQYFLIIAIFGCFIYSLAGIPGYMVLLRCIKSEEKSLGVGLHAFCIRILAGIPAPIYFGALIDRTCLHWGTLKCGEPGACRMYDINSFRRLYLGLPAALRGASFVPAFFILRLTRTFQFPGDIESSKTDHAEMKLTLKESECTEVLRSKVTED
As to B1, the Km in series [3] came to 3 µM; in series [4], 11 µM; in series [5], 0.24 µM.

Source of the values: ChEMBL document CHEMBL2074389, “Isolation of a multispecific organic anion and cardiac glycoside transporter from rat brain” (Proc Natl Acad Sci U S A, 1997).
